In patent US20230265151A1, “GIP/GLP1 CO-AGONIST COMPOUNDS” (priority 2020, published 2023):

B1: Y-Aib-EGT-αMeF(2F)-TSD-4Pal-SI-αMeL-LD-Orn-K((2-[2-(2-Amino-ethoxy)-ethoxy]-acetyl)2-(γ-Glu)-CO-(CH2)14-CH3)AQ-Aib-EFI-(D-Glu)-αMeY-LIEGGK((2-[2-(2-Amino-ethoxy … (peptide)
peptide: YXEGTXTSDXSIXLDXKAQXEFIXXLIEGGKSSGAPPPS
modifications: Aib2, αMeF(2F)6, 4Pal10, αMeL13, Orn16, Aib20, D-Glu24, αMeY25; acylated K17, K31 (groups as in name); C-terminal amide
B2: Y-Aib-EGT-αMeF(2F)-TSD-4Pal-SI-αMeL-LD-Orn-K((2-[2-(2-Amino-ethoxy)-ethoxy]-acetyl)2-(γ-Glu)-CO-(CH2)10-CO2H)AQ-Aib-EFI-(D-Glu)-αMeY-LIEGGK((2-[2-(2-Amino-ethox … (peptide)
peptide: YXEGTXTSDXSIXLDXKAQXEFIXXLIEGGKSSGAPPPS
modifications: Aib2, αMeF(2F)6, 4Pal10, αMeL13, Orn16, Aib20, D-Glu24, αMeY25; acylated K17, K31 (groups as in name); C-terminal amide
B3: Y-Aib-EGT-αMeF(2F)-TSD-4Pal-SI-αMeL-LD-Orn-K((2-[2-(2-Amino-ethoxy)-ethoxy]-acetyl)2-(εK)-CO-(CH2)12-CO2H)AQ-Aib-EFI-(D-Glu)-αMeY-LIEGGK((2-[2-(2-Amino-ethoxy)- … (peptide)
peptide: YXEGTXTSDXSIXLDXKAQXEFIXXLIEGGKSSGAPPPS
modifications: Aib2, αMeF(2F)6, 4Pal10, αMeL13, Orn16, Aib20, D-Glu24, αMeY25; acylated K17, K31 (groups as in name); C-terminal amide
B4: Y-Aib-EGT-αMeF(2F)-TSD-4Pal-SI-αMeL-LD-Orn-K((2-[2-(2-Amino-ethoxy)-ethoxy]-acetyl)-(γ-Glu)-(10-(4-carboxyphenoxy)decanoyl))AQ-Aib-EFI-(D-Glu)-αMeY-LIEGGK((2-[2 … (peptide)
peptide: YXEGTXTSDXSIXLDXKAQXEFIXXLIEGGKSSGAPPPS
modifications: Aib2, αMeF(2F)6, 4Pal10, αMeL13, Orn16, Aib20, D-Glu24, αMeY25; acylated K17, K31 (groups as in name); C-terminal amide
B5: Y-Aib-EGT-αMeF(2F)-TSD-4Pal-SI-αMeL-LD-Orn-K((2-[2-(2-Amino-ethoxy)-ethoxy]-acetyl)2-(γ-Glu)-(4-(4-tert-butylphenyl)butanoyl))AQ-Aib-EFI-(D-Glu)-αMeY-LIEGGK((2- … (peptide)
peptide: YXEGTXTSDXSIXLDXKAQXEFIXXLIEGGKSSGAPPPS
modifications: Aib2, αMeF(2F)6, 4Pal10, αMeL13, Orn16, Aib20, D-Glu24, αMeY25; acylated K17, K31 (groups as in name); C-terminal amide
B6: Y-Aib-EGT-αMeF(2F)-TSD-4Pal-SI-αMeL-LD-Orn-K((2-[2-(2-Amino-ethoxy)-ethoxy]-acetyl)2-(γ-Glu)-CO-(CH2)12-CH3)AQ-Aib-EFI-(D-Glu)-αMeY-LIEGGK((2-[2-(2-Amino-ethoxy … (peptide)
peptide: YXEGTXTSDXSIXLDXKAQXEFIXXLIEGGKSSGAPPPS
modifications: Aib2, αMeF(2F)6, 4Pal10, αMeL13, Orn16, Aib20, D-Glu24, αMeY25; acylated K17, K31 (groups as in name); C-terminal amide
B7: Y-Aib-EGT-αMeF(2F)-TSD-4Pal-SI-αMeL-LD-Orn-K((2-[2-(2-Amino-ethoxy)-ethoxy]-acetyl)2-(γ-Glu)-CO-(CH2)12-CO2H)AQ-Aib-K((2-[2-(2-Amino-ethoxy)-ethoxy]-acetyl)2-(γ … (peptide)
peptide: YXEGTXTSDXSIXLDXKAQXKFIXXLIEGGPSSGAPPPS
modifications: Aib2, αMeF(2F)6, 4Pal10, αMeL13, Orn16, Aib20, D-Glu24, αMeY25; acylated K17, K21 (groups as in name); C-terminal amide
B8: Y-Aib-EGT-αMeF(2F)-TSDK((2-[2-(2-Amino-ethoxy)-ethoxy]-acetyl)2-(γ-Glu)-CO-(CH2)14-CH3)SI-αMeL-LD-Orn-K((2-[2-(2-Amino-ethoxy)-ethoxy]-acetyl)2-(γ-Glu)-CO-(CH2) … (peptide)
peptide: YXEGTXTSDKSIXLDXKAQXEFIXXLIEGGPSSGAPPPS
modifications: Aib2, αMeF(2F)6, αMeL13, Orn16, Aib20, D-Glu24, αMeY25; acylated K10, K17 (groups as in name); C-terminal amide
B9: Y-Aib-EGT-αMeF(2F)-TSD-4Pal-SI-αMeL-LD-Orn-K((2-[2-(2-Amino-ethoxy)-ethoxy]-acetyl)2-(γ-Glu)-CO-(CH2)10-CH3)AQ-Aib-EFI-(D-Glu)-αMeY-LIEGGK((2-[2-(2-Amino-ethoxy … (peptide)
peptide: YXEGTXTSDXSIXLDXKAQXEFIXXLIEGGKSSGAPPPS
modifications: Aib2, αMeF(2F)6, 4Pal10, αMeL13, Orn16, Aib20, D-Glu24, αMeY25; acylated K17, K31 (groups as in name); C-terminal amide
B10: Y-Aib-EGT-αMeF(2F)-TSD-4Pal-SI-αMeL-LD-Orn-K((2-[2-(2-Amino-ethoxy)-ethoxy]-acetyl)2-(γ-Glu)-CO-(CH2)14-CH3)AQ-Aib-EFIK((2-[2-(2-Amino-ethoxy)-ethoxy]-acetyl)2- … (peptide)
peptide: YXEGTXTSDXSIXLDXKAQXEFIKXLIEGGPSSGAPPPS
modifications: Aib2, αMeF(2F)6, 4Pal10, αMeL13, Orn16, Aib20, αMeY25; acylated K17, K24 (groups as in name); C-terminal amide
B11: Y-Aib-EGT-αMeF(2F)-TSD-4Pal-SI-αMeL-LD-Orn-K((2-[2-(2-Amino-ethoxy)-ethoxy]-acetyl)3-(γ-Glu)-CO-(CH2)12-CO2H)AQ-Aib-EFI-(D-Glu)-αMeY-LIEGGK((2-[2-(2-Amino-ethox … (peptide)
peptide: YXEGTXTSDXSIXLDXKAQXEFIXXLIEGGKSSGAPPPS
modifications: Aib2, αMeF(2F)6, 4Pal10, αMeL13, Orn16, Aib20, D-Glu24, αMeY25; acylated K17, K31 (groups as in name); C-terminal amide
B12: Y-Aib-EGT-αMeF(2F)-TSD-4Pal-SI-αMeL-LD-Orn-K((2-[2-(2-Amino-ethoxy)-ethoxy]-acetyl)2-(γ-Glu)-(10-(4-carboxyphenoxy)decanoyl))AQ-Aib-EFI-(D-Glu)-αMeY-LIEGGK((2-[ … (peptide)
peptide: YXEGTXTSDXSIXLDXKAQXEFIXXLIEGGKSSGAPPPS
modifications: Aib2, αMeF(2F)6, 4Pal10, αMeL13, Orn16, Aib20, D-Glu24, αMeY25; acylated K17, K31 (groups as in name); C-terminal amide
B13: Y-Aib-EGT-αMeF(2F)-TSDK((2-[2-(2-Amino-ethoxy)-ethoxy]-acetyl)2-(γ-Glu)-CO-(CH2)12-CO2H)SI-αMeL-LD-Orn-K((2-[2-(2-Amino-ethoxy)-ethoxy]-acetyl)2-(γ-Glu)-CO-(CH2 … (peptide)
peptide: YXEGTXTSDKSIXLDXKAQXEFIXXLIEGGPSSGAPPPS
modifications: Aib2, αMeF(2F)6, αMeL13, Orn16, Aib20, D-Glu24, αMeY25; acylated K10, K17 (groups as in name); C-terminal amide
B14: Y-Aib-EGT-αMeF(2F)-TSD-4Pal-SI-αMeL-LD-Orn-K((εK)-(γ-Glu)-(γ-Glu)-CO-(CH2)12-CO2H)AQ-Aib-EFI-(D-Glu)-αMeY-LIEGGK((εK)-(γ-Glu)-(γ-Glu)-CO-(CH2)12-CO2H)SSGAPPPS-N … (peptide)
peptide: YXEGTXTSDXSIXLDXKAQXEFIXXLIEGGKSSGAPPPS
modifications: Aib2, αMeF(2F)6, 4Pal10, αMeL13, Orn16, Aib20, D-Glu24, αMeY25; acylated K17, K31 (groups as in name); C-terminal amide
B15: Y-Aib-EGT-αMeF(2F)-TSD-4Pal-SI-αMeL-LD-Orn-K((2-[2-(2-Amino-ethoxy)-ethoxy]-acetyl)2-(γ-Glu)-CO-(CH2)14-CH3)AQ-Aib-EFI-(D-Glu)-αMeY-LIK((2-[2-(2-Amino-ethoxy)-e … (peptide)
peptide: YXEGTXTSDXSIXLDXKAQXEFIXXLIKGGPSSGAPPPS
modifications: Aib2, αMeF(2F)6, 4Pal10, αMeL13, Orn16, Aib20, D-Glu24, αMeY25; acylated K17, K28 (groups as in name); C-terminal amide
B16: Y-Aib-EGT-αMeF(2F)-TSD-4Pal-SI-αMeL-LD-Orn-K((2-[2-(2-Amino-ethoxy)-ethoxy]-acetyl)-(γ-Glu)-CO-(CH2)14-CH3)AQ-Aib-EFI-(D-Glu)-αMeY-LIEGGK((2-[2-(2-Amino-ethoxy) … (peptide)
peptide: YXEGTXTSDXSIXLDXKAQXEFIXXLIEGGKSSGAPPPS
modifications: Aib2, αMeF(2F)6, 4Pal10, αMeL13, Orn16, Aib20, D-Glu24, αMeY25; acylated K17, K31 (groups as in name); C-terminal amide
B17: Y-Aib-EGT-αMeF(2F)-TSD-4Pal-SI-αMeL-LD-Orn-K((2-[2-(2-Amino-ethoxy)-ethoxy]-acetyl)-(γ-Glu)-CO-(CH2)10-CH3)AQ-Aib-EFI-(D-Glu)-αMeY-LIEGGK((2-[2-(2-Amino-ethoxy) … (peptide)
peptide: YXEGTXTSDXSIXLDXKAQXEFIXXLIEGGKSSGAPPPS
modifications: Aib2, αMeF(2F)6, 4Pal10, αMeL13, Orn16, Aib20, D-Glu24, αMeY25; acylated K17, K31 (groups as in name); C-terminal amide
B18: Y-Aib-EGT-αMeF(2F)-TSD-4Pal-SI-αMeL-LD-Orn-K((2-[2-(2-Amino-ethoxy)-ethoxy]-acetyl)-(εK)-(γ-Glu)-CO-(CH2)12-CO2H)AQ-Aib-EFI-(D-Glu)-αMeY-LIEGGK((2-[2-(2-Amino-e … (peptide)
peptide: YXEGTXTSDXSIXLDXKAQXEFIXXLIEGGKSSGAPPPS
modifications: Aib2, αMeF(2F)6, 4Pal10, αMeL13, Orn16, Aib20, D-Glu24, αMeY25; acylated K17, K31 (groups as in name); C-terminal amide

target: human glucagon receptor (human, UniProt P47871 26-477); test: cell-based or functional assay

B1 was tested. Which “cAMP EC50 (1.0% HSA)” value did it give?
Its value is > 9.95 µM.

Which “cAMP EC50 (1.0% HSA)” value does the source give for B2 here?
Its value is > 9.95 µM.

B3 was tested. Which “cAMP EC50 (1.0% HSA)” value did it give?
The value was > 9.95 µM.

B4 was tested. Which “cAMP EC50 (1.0% HSA)” value did it give?
The value was > 9.95 µM.

Which “cAMP EC50 (1.0% HSA)” value does the source give for B5 here?
The value was > 9.95 µM.

How did the “cAMP EC50 (1.0% HSA)” value turn out when B6 was run?
Its value is > 9.95 µM.

Which “cAMP EC50 (1.0% HSA)” value does the source give for B7 here?
The value was > 9.95 µM.

How did the “cAMP EC50 (1.0% HSA)” value turn out when B8 was run?
The value was > 9.95 µM.

B9 was tested. Which “cAMP EC50 (1.0% HSA)” value did it give?
The value was > 9.95 µM.

For B10, which “cAMP EC50 (1.0% HSA)” value is on record?
The value was > 9.95 µM.

Which “cAMP EC50 (1.0% HSA)” value does the source give for B11 here?
The value was > 9.95 µM.

For B12, which “cAMP EC50 (1.0% HSA)” value is on record?
Its value is > 9.95 µM.

How did the “cAMP EC50 (1.0% HSA)” value turn out when B13 was run?
Its value is > 9.95 µM.

How did the “cAMP EC50 (1.0% HSA)” value turn out when B14 was run?
The value was > 9.95 µM.

With B15 as the binder, how does the “cAMP EC50 (1.0% HSA)” value read?
Its value is > 9.95 µM.

For B16, which “cAMP EC50 (1.0% HSA)” value is on record?
The value was > 9.95 µM.

How did the “cAMP EC50 (1.0% HSA)” value turn out when B17 was run?
The value was > 9.95 µM.

How did the “cAMP EC50 (1.0% HSA)” value turn out when B18 was run?
The value was > 9.95 µM.
